# Source: paper PMC5888981, “Scopoletin 8-hydroxylase: a novel enzyme involved in coumarin biosynthesis and iron-deficiency responses in Arabidopsis” (Journal of Experimental Botany, 2018)
# Substrate: COc1cc2ccc(=O)oc2cc1O
# Assay: purified protein
# Format: biochemical, Arabidopsis thaliana
# Settings: Fe2+, 2-oxoglutarate and ascorbate, pH 8.0 (methods b28 say optimal pH 7.0), 31.5 °C, 10 min, 0.1 M potassium phosphate
protein,measurement,value
"S8H (scopoletin 8-hydroxylase; At3g12900 oxidoreductase) (Arabidopsis thaliana) (protein, S8H ORF in pET28a+ (BamHI/XhoI), 6xHis-tagged, no tag removal described; E. coli Rosetta 2; TALON purified) GINFEDQTTLFNFVVREGNGVKGMIDSGLSSVPRPFVQPLSERIPTQKALTCEATQPIDLSNLDGPQHKEVAKQIVEAAETLGFFQVVNHGVSVELLELLKSSAHEFFAQAPEEKSMYLKEVSPSKLVKYGTSFVPDKEKAIEWKDYVSMLYTNDSEALQHWPQPCREVALEFLNSSMEMVKNVVNILMENVGVTLEEEKMNGLMGTKMVNMNYYPTCPSPELTVGVGRHSDMGMLTVLLQDGIGGLYVKLDNGEWAEIPPVHGALVINIGDTLQILSNGKYKSAEHRVRTTNIGSRVSVPIFTAPNPSQKVGPLPEVVKRDGVARYKEFLFQDYMNNFFGQPHDGKKSLDFARAE",Km,11 ± 2 µM
same,kcat,1.73 ± 0.09 s^–1
